# Laboratory results as given in patent US7579180B2, “Beta secretase polypeptides” (Amgen Inc., priority 1999, dated 2009).
# B1: beta-secretase-Fc: amino acids 1-460 of human beta-secretase fused to the Fc portion of human IgG1, alanine-valine-threonine at the junction (protein)
# chain: TQHGIRLPLRSGLGGAPLGLRLPRETDEEPEEPGRRGSFVEMVDNLRGKSGQGYYVEMTVGSPPQTLNILVDTGSSNFAVGAAPHPFLHRYYQRQLSSTYRDLRKGVYVPYTQGKWEGELGTDLVSIPHGPNVTVRANIAAITESDKFFINGSNWEGILGLAYAEIARPDDSLEPFFDSLVKQTHVPNLFSLQLCGAGFPLNQSEVLASVGGSMIIGGIDHSLYTGSLWYTPIRREWYYEVIIVRVEINGQDLKMDCKEYNYDKSIVDSGTTNLRLPKKVFEAAVKSIKAASSTEKFPDGFWLGEQLVCWQAGTTPWNIFPVISLYLMGEVTNQSFRITILPQQYLRPVEDVATSQDDCYKFAISQSSTGTVMGAVIMEGFYVVFDRARKRIGFAVSACHVHDEFRTAAVEGPFVTLDMEDCGYNIPQTDESTLMTIAYAVT
# modifications: left off: a dimerising Fc or GST
# notes: amino acids 1-460 of human beta-secretase fused to the Fc portion of human IgG1, alanine-valine-threonine at the junction
# Molecular target: T1, human beta-secretase-Fc fusion (Homo sapiens, UniProt P56817)
# T1 construct: A plasmid containing cDNA encoding amino acids 1-460 of beta-secretase fused to the Fc portion of human IgG; made in house; host or cells: human embryonic kidney 293T cells, stably transfected; purified from conditioned medium on protein A
# T1 sequence (P56817 with tags, fused parts or gaps limits assumed): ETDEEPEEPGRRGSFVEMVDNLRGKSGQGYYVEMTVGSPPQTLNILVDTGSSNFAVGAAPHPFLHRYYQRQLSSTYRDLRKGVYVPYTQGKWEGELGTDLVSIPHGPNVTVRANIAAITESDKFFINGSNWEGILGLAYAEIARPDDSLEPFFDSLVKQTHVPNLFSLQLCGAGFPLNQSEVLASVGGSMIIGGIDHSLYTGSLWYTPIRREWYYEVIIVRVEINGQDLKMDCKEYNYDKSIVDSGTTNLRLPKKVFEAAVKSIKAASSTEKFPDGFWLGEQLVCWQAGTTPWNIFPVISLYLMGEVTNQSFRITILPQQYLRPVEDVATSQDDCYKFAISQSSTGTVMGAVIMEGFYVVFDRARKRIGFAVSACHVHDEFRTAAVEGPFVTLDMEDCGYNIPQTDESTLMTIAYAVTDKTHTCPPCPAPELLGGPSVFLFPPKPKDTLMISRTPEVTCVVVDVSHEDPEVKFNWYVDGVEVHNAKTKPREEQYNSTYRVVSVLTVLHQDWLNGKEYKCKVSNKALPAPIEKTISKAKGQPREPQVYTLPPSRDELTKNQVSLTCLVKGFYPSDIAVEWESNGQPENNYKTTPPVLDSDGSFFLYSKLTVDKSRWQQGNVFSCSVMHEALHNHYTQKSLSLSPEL
# Test: Beta-secretase activity assay: cleavage of DNP-labeled APP peptides, HPLC
# Format: biochemical
# Conditions: Sw, Wt and MV peptides; FIG. 11
# Protocol: FIG. 11 is a graph depicting the ability of human beta-secretase-Fc fusion to cleave various APP peptides. The X-axis is the amount of enzyme in the reaction mixture and the Y-axis is the amount of cleavage (denoted as pmol product formed) of each of three substrate peptides. “Sw” refers to the APP peptide with the Swedish mutation; “Wt” refers to wild type APP peptide; and “MV” refers to a mutated APP peptide.
# Recombinant native as well as mutant beta secretase polypeptides were assayed for activity by measuring the ability of the molecule to cleave various A-beta peptides.
# Each assay was conducted as follows. […] Quenched reactions were analyzed by HPLC on a 5 μm, C18 reversed-phase column (Sephasil Peptide, 4.6×100 mm; Amersham Pharmacia Biotech, Piscataway, N.J.) using first a linear gradient of 18-31.5 percent acetonitrile in 0.1 percent TFA over 40 minutes, then 31.5-81 percent acetonitrile for 1 minute, then 81 percent acetonitrile for 4 minutes, and then returning to 18-percent acetonitrile for several minutes to reequilibrate the column. […] Proteolysis of the Sw and WT octapeptides was evaluated using a linear gradient of 27-37.8 percent acetonitrile over 24 minutes on the same column.
# Both product and substrate were monitored by absorbance at 360 nm. […]
# The concentration of standard was determined from the extinction coefficient of DNP (e365nm=16 mM^−1cm^−1). […]
molecule,measurement,value
B1,substrate specificity of the enzyme,has the same substrate specificity that has previously been described for beta-secretase from intact cells
